In this experiment the target is partial heads (10am13am phage T4 heads that ejected most of their packaged DNA, keeping a ~8-kb piece) (bacteriophage T4) (UniProt P13334).
UniProt P13334, sequence (P13334 whole entry, looked up): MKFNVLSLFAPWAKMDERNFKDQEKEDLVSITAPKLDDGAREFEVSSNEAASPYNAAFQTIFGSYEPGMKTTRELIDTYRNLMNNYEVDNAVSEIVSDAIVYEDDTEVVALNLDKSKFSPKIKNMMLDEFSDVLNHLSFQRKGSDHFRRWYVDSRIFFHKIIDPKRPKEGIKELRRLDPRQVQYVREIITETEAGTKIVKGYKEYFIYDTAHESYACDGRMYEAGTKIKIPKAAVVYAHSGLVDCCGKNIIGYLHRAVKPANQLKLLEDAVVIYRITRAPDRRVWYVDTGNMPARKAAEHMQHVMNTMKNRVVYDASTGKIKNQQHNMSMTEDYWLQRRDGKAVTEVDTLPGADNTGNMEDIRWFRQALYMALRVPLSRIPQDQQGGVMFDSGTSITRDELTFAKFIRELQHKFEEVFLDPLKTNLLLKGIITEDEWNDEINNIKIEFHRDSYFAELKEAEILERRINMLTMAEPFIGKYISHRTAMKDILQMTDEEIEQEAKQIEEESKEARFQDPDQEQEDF

“full-length gp17 (large terminase protein, packaging motor) (from UniProt P17312 1-610) (enzyme)” registered a single molecule optical tweezers: packaging rate of 10-kb DNA against 5 pN by head-gp17 complexes of 1100 bp/s.
